# Results published in publication PMC10697138.
# Tests used:
# [1] = molecular target: IL-4Rα (Homo sapiens) (UniProt P24394); details: cited from earlier work
# [2] = molecular target: hIL-4Rα–hIL-13Rα1 complex (human type II IL-4 receptor) (human) (UniProt P78552)
# Sequence of UniProt P78552 (P78552 22-343, chain 1 of 2): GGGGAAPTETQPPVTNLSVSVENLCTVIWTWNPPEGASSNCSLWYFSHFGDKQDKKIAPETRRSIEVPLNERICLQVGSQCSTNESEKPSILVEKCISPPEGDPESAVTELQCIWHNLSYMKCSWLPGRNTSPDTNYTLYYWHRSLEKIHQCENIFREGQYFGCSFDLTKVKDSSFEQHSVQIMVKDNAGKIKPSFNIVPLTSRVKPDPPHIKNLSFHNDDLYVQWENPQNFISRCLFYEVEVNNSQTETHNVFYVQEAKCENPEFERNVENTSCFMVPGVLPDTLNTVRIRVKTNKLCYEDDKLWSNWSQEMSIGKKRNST
# Sequence of UniProt P78552 (P24394 26-232, chain 2 of 2, further chain): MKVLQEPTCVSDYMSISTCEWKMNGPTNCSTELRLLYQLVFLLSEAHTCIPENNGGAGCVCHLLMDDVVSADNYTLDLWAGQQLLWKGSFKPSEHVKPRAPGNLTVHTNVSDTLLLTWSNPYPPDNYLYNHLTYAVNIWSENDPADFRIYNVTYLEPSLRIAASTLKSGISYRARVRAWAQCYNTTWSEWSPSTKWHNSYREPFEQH
# Sequence of UniProt P24394 (P24394 26-232): as the sequence (P24394 26-232, chain 2 of 2, further chain) above
Substance,Kd [1],Kd [2]
IL-4 (from UniProt P05112),< 1 nM,
human interleukin-4 (hIL-4) (from UniProt P05112 25-153) (ligand),,101 nM
